Measurements taken from paper PMC10313831, “ssDNA accessibility of Rad51 is regulated by orchestrating multiple RPA dynamics”.

How the values were obtained:
RPA (Rfa1-Rfa2-Rfa3) [1] = biological target: T1, RPA (Rfa1-Rfa2-Rfa3) (Saccharomyces cerevisiae, UniProt P22336;P26754;P26755 1-621;1-273;1-122); assay: EMSA; 150 mM KCl; second RPA binds at 50-100 nM; EMSA: 20 mM Tris-HCl pH 7.5, 150 (or 15) mM KCl, 1 mM DTT, 100 ug/mL BSA, 5 nM DNA, 30 C 10 min; curtains: 40 mM Tris-HCl pH 7.5, 150 or 15 mM NaCl, 2 mM MgCl2, 1 mM DTT, 0.2 mg/mL BSA; MST: 1x PBS-P+; conditions: protein: recombinant; tags: His tag (MST: His-tagged RPA, RED-tris-NTA dye); copies: 1;1;1; label: 5'-32P
T1 sequence (P22336 whole entry, chain 1 of 3): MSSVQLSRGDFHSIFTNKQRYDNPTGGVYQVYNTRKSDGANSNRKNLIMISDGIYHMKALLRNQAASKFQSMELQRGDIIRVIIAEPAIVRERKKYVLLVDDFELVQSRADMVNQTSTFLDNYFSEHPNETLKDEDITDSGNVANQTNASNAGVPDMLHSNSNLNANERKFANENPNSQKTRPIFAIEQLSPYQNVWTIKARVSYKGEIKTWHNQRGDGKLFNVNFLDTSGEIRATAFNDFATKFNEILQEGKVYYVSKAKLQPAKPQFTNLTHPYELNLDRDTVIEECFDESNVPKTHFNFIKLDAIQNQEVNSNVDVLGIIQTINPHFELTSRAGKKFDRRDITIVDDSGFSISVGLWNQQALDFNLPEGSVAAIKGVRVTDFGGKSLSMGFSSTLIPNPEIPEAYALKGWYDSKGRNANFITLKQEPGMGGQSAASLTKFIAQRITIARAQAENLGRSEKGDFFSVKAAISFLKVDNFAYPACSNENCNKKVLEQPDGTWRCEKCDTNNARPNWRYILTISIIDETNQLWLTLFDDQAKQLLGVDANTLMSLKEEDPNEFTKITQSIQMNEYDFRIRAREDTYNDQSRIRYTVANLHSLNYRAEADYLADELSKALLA
T1 sequence (P26754 whole entry, chain 2 of 3): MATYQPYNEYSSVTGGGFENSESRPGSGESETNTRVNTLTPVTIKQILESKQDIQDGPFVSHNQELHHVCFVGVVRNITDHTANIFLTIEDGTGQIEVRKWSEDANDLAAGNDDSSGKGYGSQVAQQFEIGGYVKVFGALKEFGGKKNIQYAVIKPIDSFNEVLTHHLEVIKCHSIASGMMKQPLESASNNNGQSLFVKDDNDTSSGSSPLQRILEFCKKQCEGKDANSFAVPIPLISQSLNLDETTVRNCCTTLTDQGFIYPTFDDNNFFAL
T1 sequence (P26755 whole entry, chain 3 of 3): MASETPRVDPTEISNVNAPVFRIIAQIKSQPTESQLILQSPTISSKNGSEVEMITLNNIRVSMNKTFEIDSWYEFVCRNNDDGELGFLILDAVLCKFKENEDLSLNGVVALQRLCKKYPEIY

RPA (Rfa1-Rfa2-Rfa3) [2] = biological target: T1, RPA (Rfa1-Rfa2-Rfa3); assay: EMSA; minimal length for stable third RPA; EMSA: 20 mM Tris-HCl pH 7.5, 150 (or 15) mM KCl, 1 mM DTT, 100 ug/mL BSA, 5 nM DNA, 30 C 10 min; curtains: 40 mM Tris-HCl pH 7.5, 150 or 15 mM NaCl, 2 mM MgCl2, 1 mM DTT, 0.2 mg/mL BSA; MST: 1x PBS-P+; conditions: protein: recombinant; tags: His tag (MST: His-tagged RPA, RED-tris-NTA dye); copies: 1;1;1; label: 5'-32P
RPA (Rfa1-Rfa2-Rfa3) [3] = biological target: T1, RPA (Rfa1-Rfa2-Rfa3); assay: EMSA; minimal length for stable first RPA; EMSA: 20 mM Tris-HCl pH 7.5, 150 (or 15) mM KCl, 1 mM DTT, 100 ug/mL BSA, 5 nM DNA, 30 C 10 min; curtains: 40 mM Tris-HCl pH 7.5, 150 or 15 mM NaCl, 2 mM MgCl2, 1 mM DTT, 0.2 mg/mL BSA; MST: 1x PBS-P+; conditions: protein: recombinant; tags: His tag (MST: His-tagged RPA, RED-tris-NTA dye); copies: 1;1;1; label: 5'-32P
RPA (Rfa1-Rfa2-Rfa3) [4] = biological target: T1, RPA (Rfa1-Rfa2-Rfa3); assay: EMSA; 150 mM KCl; single shifted species; EMSA: 20 mM Tris-HCl pH 7.5, 150 (or 15) mM KCl, 1 mM DTT, 100 ug/mL BSA, 5 nM DNA, 30 C 10 min; curtains: 40 mM Tris-HCl pH 7.5, 150 or 15 mM NaCl, 2 mM MgCl2, 1 mM DTT, 0.2 mg/mL BSA; MST: 1x PBS-P+; conditions: protein: recombinant; tags: His tag (MST: His-tagged RPA, RED-tris-NTA dye); copies: 1;1;1; label: 5'-32P (EMSA); unlabeled (MST)
RPA-MeGFP = RPA-MeGFP (Saccharomyces cerevisiae, UniProt P22336;P26754;P26755 1-621;1-273;1-122); assay: MST; similar to RPA; EC50 only in figure; PBS-P+; EMSA: 20 mM Tris-HCl pH 7.5, 150 (or 15) mM KCl, 1 mM DTT, 100 ug/mL BSA, 5 nM DNA, 30 C 10 min; curtains: 40 mM Tris-HCl pH 7.5, 150 or 15 mM NaCl, 2 mM MgCl2, 1 mM DTT, 0.2 mg/mL BSA; MST: 1x PBS-P+; conditions: protein: recombinant; tags: MeGFP (eGFP A206K)-6xHis at Rfa2 C-terminus, LG linker; copies: 1;1;1; label: 5'-32P (EMSA); unlabeled (MST)
Sequence of RPA-MeGFP (P22336 whole entry, chain 1 of 3): as the sequence (P22336 whole entry, chain 1 of 3) above
Sequence of RPA-MeGFP (P26754 whole entry, chain 2 of 3): as the sequence (P26754 whole entry, chain 2 of 3) above
Sequence of RPA-MeGFP (P26755 whole entry, chain 3 of 3): as the sequence (P26755 whole entry, chain 3 of 3) above

RPA (Rfa1-Rfa2-Rfa3) [5] = biological target: T1, RPA (Rfa1-Rfa2-Rfa3); assay: EMSA; 150 mM KCl; second RPA at 20 nM, third at 200 nM; EMSA: 20 mM Tris-HCl pH 7.5, 150 (or 15) mM KCl, 1 mM DTT, 100 ug/mL BSA, 5 nM DNA, 30 C 10 min; curtains: 40 mM Tris-HCl pH 7.5, 150 or 15 mM NaCl, 2 mM MgCl2, 1 mM DTT, 0.2 mg/mL BSA; MST: 1x PBS-P+; conditions: protein: recombinant; tags: His tag (MST: His-tagged RPA, RED-tris-NTA dye); copies: 1;1;1; label: 5'-32P
RPA (Rfa1-Rfa2-Rfa3) [6] = biological target: T1, RPA (Rfa1-Rfa2-Rfa3); assay: EMSA; 150 mM KCl; 2-stage binding; EMSA: 20 mM Tris-HCl pH 7.5, 150 (or 15) mM KCl, 1 mM DTT, 100 ug/mL BSA, 5 nM DNA, 30 C 10 min; curtains: 40 mM Tris-HCl pH 7.5, 150 or 15 mM NaCl, 2 mM MgCl2, 1 mM DTT, 0.2 mg/mL BSA; MST: 1x PBS-P+; conditions: protein: recombinant; tags: His tag (MST: His-tagged RPA, RED-tris-NTA dye); copies: 1;1;1; label: 5'-32P
RPA (Rfa1-Rfa2-Rfa3) [7] = biological target: T1, RPA (Rfa1-Rfa2-Rfa3); assay: EMSA; 150 mM KCl; single shifted species, affinity similar to dT30; EMSA: 20 mM Tris-HCl pH 7.5, 150 (or 15) mM KCl, 1 mM DTT, 100 ug/mL BSA, 5 nM DNA, 30 C 10 min; curtains: 40 mM Tris-HCl pH 7.5, 150 or 15 mM NaCl, 2 mM MgCl2, 1 mM DTT, 0.2 mg/mL BSA; MST: 1x PBS-P+; conditions: protein: recombinant; tags: His tag (MST: His-tagged RPA, RED-tris-NTA dye); copies: 1;1;1; label: 5'-32P

TTTTTTTTTTTTTTTTTTTTTTTTTTTTTTTTTTTTTTTT (ssDNA) [dT(40)]
binding result (RPA (Rfa1-Rfa2-Rfa3) [1]): binds

B1: dT(54) (ssDNA)
DNA: TTTTTTTTTTTTTTTTTTTTTTTTTTTTTTTTTTTTTTTTTTTTTTTTTTTTTT
binding result (RPA (Rfa1-Rfa2-Rfa3) [2]): binds

TTTTTTTTTTTTTTT (ssDNA) [dT(15)]
binding result (RPA (Rfa1-Rfa2-Rfa3) [3]): binds

TTTTTTTTTTTTTTTTTTTTTTTTTTTTTT (ssDNA) [dT(30)]
binding result (RPA (Rfa1-Rfa2-Rfa3) [4]): binds | binding result (RPA-MeGFP): binds

B2: dT(60) (ssDNA)
DNA: TTTTTTTTTTTTTTTTTTTTTTTTTTTTTTTTTTTTTTTTTTTTTTTTTTTTTTTTTTTT
binding result (RPA (Rfa1-Rfa2-Rfa3) [5]): binds

TTTTTTTTTTTTTTTTTTTTTTTTTTTTTTTTTTTTTTTTTTTTTTTTTT (ssDNA) [dT(50)]
binding result (RPA (Rfa1-Rfa2-Rfa3) [6]): binds

TTTTTTTTTTTTTTTTTTTT (ssDNA) [dT(20)]
binding result (RPA (Rfa1-Rfa2-Rfa3) [7]): binds
